Here are results for six molecules from patent US20190365892A1 (Biogen, published 2019).

Broadly, the EC50 is the concentration that produces a half-maximal response. The term IC50 denotes the concentration that inhibits the measured activity by half.

In test [1] the target is VLA-4 on tumor cell lines (Mec1, JM1, U266, H929, HL60, KG1) (UniProt P13612). Description: cell-based or functional assay.
Test [2] shares this target. Description: flow cytometry on H929 (MM) cells. Background: Flow cytometry measures light scatter and fluorescence of single cells or particles in a stream.
Test [3] shares this target. Put plainly: flow cytometry on JM1 (CLL) cells.
For test [4] the target is unchanged. Description: flow cytometry on KG1 (AML) cells.
For test [5] the target is unchanged. Put plainly: flow cytometry on U266 (MM) cells.
Test [6] has the same target. Description: flow cytometry on HL60 (AML) cells.
The target is the same in test [7]. Description: flow cytometry on Mec1 (CLL) cells.
The target of test [8] is T1, α4β1 (UniProt P13612 34-970; P05556 21-728).
T1 construct: The preparation is not described; also called VLA-4; alpha4beta1 integrin
Description: competition ELISA; α4β1 preincubated with test mAb, competitor murine HP1/2. (In general: An ELISA detects its analyte on a solid surface through an enzyme-linked reagent.)

Test [9] deals with T1, α4β1. Put plainly: competition ELISA; mixture of test mAb and mouse HP1/2 (competitor) on α4β1.

In [1], Humanized HP1/2 (HuHP1/2) (antibody) yielded an IC50 (nM), inhibition of adhesion of H929 (MM) cells to Fibronectin-coated wells of 0.21 nM; an IC50 (nM), inhibition of adhesion of H929 (MM) cells to VCAM1-Ig-coated wells of 1.35 nM; an IC50 (nM), inhibition of adhesion of HL60 (AML) cells to Fibronectin-coated wells of 0.16 nM; an IC50 (nM), inhibition of adhesion of HL60 (AML) cells to VCAM1-Ig-coated wells of 0.91 nM. In test [1], this molecule had an IC50 (nM), inhibition of adhesion of JM1 (CLL) cells to VCAM1-Ig-coated wells of 0.12 nM; an IC50 (nM), inhibition of adhesion of KG1 (AML) cells to Fibronectin-coated wells of 0.05 nM; an IC50 (nM), inhibition of adhesion of KG1 (AML) cells to VCAM1-Ig-coated wells of 0.1 nM; an IC50 (nM), inhibition of adhesion of Mec1 (CLL) cells to Fibronectin-coated wells of 0.1 nM. Also, in [1], the IC50 (nM), inhibition of adhesion of Mec1 (CLL) cells to VCAM1-Ig-coated wells turned out to be 0.07 nM; the IC50 (nM), inhibition of adhesion of U266 (MM) cells to Fibronectin-coated wells is 0.14 nM; the IC50 (nM), inhibition of adhesion of U266 (MM) cells to VCAM1-Ig-coated wells was found to be 0.13 nM; the antibody concentration giving maximal inhibition of HL60 cell binding to FN and VCAM1-Ig came out at 20 µg/mL. In test [1], this molecule returned an antibody concentration giving maximal inhibition of Mec1 cell binding to FN and VCAM1-Ig of 20 µg/mL; an antibody concentration giving maximal inhibition of U266 cell binding to FN and VCAM1-Ig of 20 µg/mL. In [2], this molecule registered an EC50 of 0.91 nM. The same molecule showed a 50% effective concentration (EC50) in test [3] of 0.21 nM. In addition, the EC50 in [4] was determined as 0.19 nM. Moreover, the EC50 in test [5] came to 0.46 nM. This molecule also had an EC50 in test [6] of 0.11 nM. Further, the EC50 in test [7] was 0.11 nM. The IC50 in test [8] amounted to 1.05 nM. In addition, the IC50 in test [9] is 1.41 nM.

B1: Chimeric HP1/2 (antibody, V domains shown)
VH: EVQLQQSGAELVKPGASVKLSCTASGFNIKDTYMHWVKQRPEQGLEWIGRIDPASGDTKYDPKFQVKATITADTSSNTAWLQLSSLTSEDTAVYYCADGMWVSTGYALDFWGQGTTVTVSS
VL: SIVMTQTPKFLLVSAGDRVTITCKASQSVTNDVAWYQQKPGQSPKLLIYYASNRYTGVPDRFTGSGYGTDFTFTISTVQAEDLAVYFCQQDYSSPYTFGGGTKLEIK
notes: also called chimerized HP1/2 antibody; chimeric mAb
In the case of B1, the IC50 in test [8] stood at 1.06 nM; in [9], 1.64 nM.

B2: H1L0 (antibody, V domains shown)
VH: EVQLVQSGAEVKKPGATVKISCKASGFNIKDTYMHWVQQAPGKGLEWMGRIDPASGDTKYDPKFQVRVTITADTSTDTAYMELSSLRSEDTAVYYCADGMWVSTGYALDFWGQGTLVTVSS
VL: DIVMTQSPDSLAVSLGERATINCKASQSVTNDVAWYQQKPGQPPKLLIYYASNRYTGVPDRFSGSGSGTDFTLTISSLQAEDVAVYYCQQDYSSPYTFGQGTKVEIK
In the case of B2, the values for the IC50 in test [8] and in test [9] were 1.87 nM and 4.46 nM, respectively.

B3: H1L2 (antibody, V domains shown)
VH: EVQLVQSGAEVKKPGATVKISCKASGFNIKDTYMHWVQQAPGKGLEWMGRIDPASGDTKYDPKFQVRVTITADTSTDTAYMELSSLRSEDTAVYYCADGMWVSTGYALDFWGQGTLVTVSS
VL: SIVMTQSPDSLAVSLGERATINCKASQSVTNDVAWYQQKPGQPPKLLIYYASNRYTGVPDRFSGSGYGTDFTLTISSLQAEDVAVYFCQQDYSSPYTFGQGTKVEIK
B3: the IC50 came to 0.9 nM in [8] and 1.34 nM in test [9].

B4: H1L3 (antibody, V domains shown)
VH: EVQLVQSGAEVKKPGATVKISCKASGFNIKDTYMHWVQQAPGKGLEWMGRIDPASGDTKYDPKFQVRVTITADTSTDTAYMELSSLRSEDTAVYYCADGMWVSTGYALDFWGQGTLVTVSS
VL: SIVMTQSPDSLAVSLGERATINCKASQSVTNDVAWYQQKPGQPPKLLIYYASNRYTGVPDRFSGSGYGTDFTFTISSLQAEDVATYFCQQDYSSPYTFGQGTKVEIK
B4: in [8], the IC50 was determined as 0.49 nM.

B5: H1L1 (antibody, V domains shown)
VH: EVQLVQSGAEVKKPGATVKISCKASGFNIKDTYMHWVQQAPGKGLEWMGRIDPASGDTKYDPKFQVRVTITADTSTDTAYMELSSLRSEDTAVYYCADGMWVSTGYALDFWGQGTLVTVSS
VL: SIVMTQSPDSLAVSLGERATINCKASQSVTNDVAWYQQKPGQPPKLLIYYASNRYTGVPDRFSGSGSGTDFTLTISSLQAEDVAVYFCQQDYSSPYTFGQGTKVEIK
Turning to B5, the values for the IC50 in [8] and in test [9] were 1.67 nM and 4.55 nM, respectively.
